Results on three molecules are retold here after US11421029 (SICHUAN KELUN BIOTECH BIOPHARMACEUTICAL, dated 2022).

Assay [1] concerns the target T1, recombinant CD16a (Val) protein (UniProt P08637 17-208, limits assumed).
T1 construct: Purchased from Sino Biological Inc. '(Val)' is printed without the position of the valine
Put plainly: ELISA: CD16a (Val) coated, antibody crosslinked with goat F(ab)2 anti-human kappa. As to the method:
The recombinant CD16a (Val) protein (purchased from Sino Biological Inc.) was added into a 96-well enzyme labeled plate (purchased from Thermo) at 100 ng/well, and coating was carried out at 4° C. overnight. On the next day, the solution in the wells was discarded, the wells were washed with a washing buffer solution (a phosphate buffer solution containing 0.05% Tween-20) for one time and the solution in the wells was discarded. PBS solution containing 2% BSA was added at 100 μl/well for blocking the well at 25° C. for 2 hours, and then solution in the wells was discarded. […] The plate was incubated at 25° C. for 2 hours, then the solution in the wells was discarded and the well was washed with the washing buffer for three times. […] Then solution in the well was discarded and the well was washed with the washing buffer for five times. TMB solution was added to the well at a concentration of 100 μl/well, and the reaction was carried out at room temperature for about 30 minutes. Stop solution at 100 μl/well was added to the plate, and then the plate was put into an ELISA instrument to read OD450 absorbance values.
On the technique in general: ELISA stands for enzyme-linked immunosorbent assay.

For assay [2], the target named is PDL-1 expressed on CHO-PDL-1-CD3L cells (UniProt Q9NZQ7 19-290, limits assumed). Put plainly: cell-based or functional assay.
The target of assay [3] is T2, recombinant PDL-1-mFc protein (UniProt Q9NZQ7 19-238).
T2 construct: Obtained from Kelun-Biotech; only the UniProt entry is named; not shown: mFc part
Nature of the assay: competitive ELISA: PD1-hFc coated, antibody premixed with PDL-1-mFc, anti-mouse IgG-HRP detection; competitor PD1-hFc. On the procedure: The recombinant PD1-hFc protein (purchased from Sino Biological Inc.) was added into a 96-well enzyme labeled plate (purchased from Thermo) at 100 ng/well, and the coating was carried out at 4° C. overnight. On the next day, the solution in the wells was discarded and wells were washed one time with washing buffer (phosphate buffer solution containing 0.05% Tween-20) and the solution in the wells was discarded again. PBS solution containing 2% BSA was added at 100 μl/well for blocking the wells at 37° C. for 2 hours, and then the solution in the wells was discarded. […] The plate was incubated at 37° C. for 2 hours, then the solution in the wells was discarded and the well was washed with the washing buffer for three times. HRP conjugated goat anti-mouse IgG(H+L) (purchased from Thermo) solution was added into the plate at 100 μl/well and the plate was incubated at 37° C. for 1 hour. TMB solution was added to the wells, and the reaction was carried out at room temperature for about 5 minutes. Stop solution was added to the plate, and then the plate was put into an ELISA instrument in order to read an OD450 light absorbance value.

Assay [4] has as its target T2, recombinant PDL-1-mFc protein. Nature of the assay: ELISA: PDL-1-mFc coated, anti-human IgG-HRP detection. As to the method: On the next day, the solution in the wells was discarded, and the wells were washed with a washing buffer (a phosphate buffer solution containing 0.05% Tween-20) for one time and the solution in the wells was discarded. PBS solution containing 2% BSA was added at 100 μl/well and the wells were blocked at […] for 2 hours. Then the solution in the well was discarded. […] The plate was incubated at 37° C. for 2 hours, then the solution in the wells was discarded and the wells were washed for three times. HRP conjugated goat anti-human IgG(H+L) was added into the plate at 100 μl/well and the plate was incubated at 37° C. for 1 hour. TMB solution was added to the wells at a concentration of 100 μl/well, and the reaction was carried out at room temperature for about 5 minutes. A stop solution at 100 μl/well was added to the plate, and then the plate was put into an ELISA plate reader reading OD450 absorbance values.

For assay [5] the target is unchanged. Put plainly: bridging ELISA for both antigens at once: PDL-1-mFc coated, antibody titrated, then 1.5 ug/ml CTLA-4-His, anti-His-HRP detection. On the procedure:
On the next day, the solution in the wells was discarded, wells were washed one time with washing buffer (phosphate buffer solution containing 0.05% Tween-20) and solution in the well was discarded again. PBS solution containing 2% BSA was added at 100 μl/well for blocking the wells at 37° C. for 2 hours, and then solution in the wells was discarded. The recombinant bispecific antibodies were diluted 5 folds serially at a start concentration of 100000 ng/mL to get 11 concentration gradients, and were added to the wells at 100 μl/well. The plate was incubated at 37° C. for 2 hours, then the solution in the wells was discarded and wells were washed with the washing buffer for three times. 1.5 ug/ml of the CTLA-4-His protein was added into the plate at 100 μl/well, and plate was incubated at 37° C. for 2 hours. Then the solution in the wells was discarded and wells were washed with the washing buffer for three times. HRP conjugated goat anti-his (purchased from BioLegend) was added into the plate and the plate was incubated at 37° C. for 1 hour. TMB solution was added to the wells, and the reaction was carried out at room temperature for about 5 minutes. Stop solution was added to the plate, and then the plate was put into an ELISA plate reader to read OD450 absorbance values.

Assay [6] has as its target T3, recombinant CTLA-4-His protein (UniProt P16410 36-161, limits assumed).
T3 construct: Obtained from Kelun-Biotech; only the UniProt entry is named; also called CLTA-4-His; not shown: His tag
T3 sequence (looked up): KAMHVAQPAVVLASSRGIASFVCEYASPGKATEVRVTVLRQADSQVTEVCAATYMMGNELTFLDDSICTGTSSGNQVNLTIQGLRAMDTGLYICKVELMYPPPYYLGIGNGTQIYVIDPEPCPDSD
Nature of the assay: ELISA: CTLA-4-His batch 2 coated, anti-human IgG-HRP detection. On the procedure: (§1) Two batches of recombinant CLTA-4-His proteins (obtained from Kelun-Biotech, Uniport No.: P16410) were diluted with PBS respectively, the dilutes of CTLA-4-His at 100 μl/well were added into a 96-well ELISA plate, and coating was carried out at 4° C. overnight. On the next day, the solution in the wells was discarded, and wells were washed one time with washing buffer and the solution in the wells was discarded again. PBS solution containing 2% BSA was added at 100 μl/well for blocking the well at 37° C. for 2 hours, and then the solution in the well was discarded. […] The HRP conjugated goat anti-human IgG (H+L) solution was added into the plate and the plate was incubated at 37° C. for 1 hour. TMB solution was added to the well, and the reaction was carried out at room temperature for about 8 minutes. The stop solution was added to the plate, and then the plate was put into an ELISA plate reader to read OD450 absorbance values. Fitting curves were made by the means of the experimental data, as shown in FIG. 4A and FIG. 4B, and EC50 was calculated.

The target of assay [7] is T3, recombinant CTLA-4-His protein. Put plainly: ELISA: CTLA-4-His batch 1 coated, anti-human IgG-HRP detection. On the procedure: as §1
For assay [8] the target is unchanged. Nature of the assay: ELISA: CTLA-4-His coated; reference AB02. On the procedure:
as §1

T1 sequence (P08637 17-208 F176V limits assumed): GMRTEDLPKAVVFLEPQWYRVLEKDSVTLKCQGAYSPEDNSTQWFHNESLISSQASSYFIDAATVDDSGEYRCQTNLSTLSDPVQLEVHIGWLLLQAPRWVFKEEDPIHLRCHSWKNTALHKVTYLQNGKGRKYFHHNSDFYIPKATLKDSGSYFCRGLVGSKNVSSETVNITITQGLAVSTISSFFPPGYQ
Chain of PDL-1 expressed on CHO-PDL-1-CD3L cells (Q9NZQ7 19-290 limits assumed): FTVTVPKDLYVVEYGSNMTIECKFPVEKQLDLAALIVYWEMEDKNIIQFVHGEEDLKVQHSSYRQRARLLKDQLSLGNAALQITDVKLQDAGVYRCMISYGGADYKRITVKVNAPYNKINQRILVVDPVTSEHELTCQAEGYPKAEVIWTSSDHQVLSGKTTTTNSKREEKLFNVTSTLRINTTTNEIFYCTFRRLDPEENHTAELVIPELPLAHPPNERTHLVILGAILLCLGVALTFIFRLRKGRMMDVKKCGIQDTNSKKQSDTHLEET
T2 sequence (Q9NZQ7 19-238): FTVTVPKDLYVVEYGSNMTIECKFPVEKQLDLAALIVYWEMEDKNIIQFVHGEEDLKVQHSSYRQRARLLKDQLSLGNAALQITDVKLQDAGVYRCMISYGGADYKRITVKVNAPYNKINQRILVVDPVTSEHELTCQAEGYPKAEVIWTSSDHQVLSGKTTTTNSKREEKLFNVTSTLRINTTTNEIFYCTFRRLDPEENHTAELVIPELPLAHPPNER

B1: anti-PDL-1 parental antibody AB01 (antibody, human IgG1, kappa)
heavy: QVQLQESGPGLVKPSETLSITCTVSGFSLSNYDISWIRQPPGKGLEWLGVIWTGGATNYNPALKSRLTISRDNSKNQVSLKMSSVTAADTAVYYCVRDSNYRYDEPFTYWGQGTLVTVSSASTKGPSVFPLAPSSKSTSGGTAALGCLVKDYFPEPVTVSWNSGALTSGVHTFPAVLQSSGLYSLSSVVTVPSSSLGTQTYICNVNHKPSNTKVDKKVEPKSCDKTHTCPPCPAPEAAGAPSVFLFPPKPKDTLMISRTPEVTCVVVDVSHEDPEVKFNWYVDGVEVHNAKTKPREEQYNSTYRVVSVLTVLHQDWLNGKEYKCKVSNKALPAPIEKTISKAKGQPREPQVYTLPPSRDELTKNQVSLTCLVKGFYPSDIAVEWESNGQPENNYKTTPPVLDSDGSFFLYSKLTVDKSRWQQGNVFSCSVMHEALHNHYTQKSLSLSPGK
light: EIVLTQSPDTLSVTPKEKVTLTCRASQSIGTNIHWFQQKPGQSPKLLIKYASESISGVPSRFSGSGSGTDFTLTINSVEAEDAATYYCQQSNSWPYTFGQGTKLEIKRTVAAPSVFIFPPSDEQLKSGTASVVCLLNNFYPREAKVQWKVDNALQSGNSQESVTEQDSKDSTYSLSSTLTLSKADYEKHKVYACEVTHQGLSSPVTKSFNRGEC
notes: also called PDL-1 antibody AB01
As to B1, the binding result in assay [1] is given as “no binding (tested: 50 ug/ml, then 3-fold dilutions)”. Besides, the “EC50 of blocking PDL-1/PD1 in the luciferase (NFAT) reporter assay” value (from here on “EC50 of blocking PDL-1/PD1”) in assay [2] is 1.68 nM. Also, the EC50 was determined as 3.82 nM in assay [3] and 0.0155 nM in assay [4].

B2: anti-PDL-1/CTLA-4 recombinant bispecific antibody AB03 (bispecific antibody, human IgG1, kappa)
heavy: not shown
light: EIVLTQSPDTLSVTPKEKVTLTCRASQSIGTNIHWFQQKPGQSPKLLIKYASESISGVPSRFSGSGSGTDFTLTINSVEAEDAATYYCQQSNSWPYTFGQGTKLEIKRTVAAPSVFIFPPSDEQLKSGTASVVCLLNNFYPREAKVQWKVDNALQSGNSQESVTEQDSKDSTYSLSSTLTLSKADYEKHKVYACEVTHQGLSSPVTKSFNRGEC
notes: The scFv is at the N-terminus of the heavy chain; also called AB003
As to B2, the binding result in assay [1] is given as “binds”. Also, the EC50 in assay [5] was 0.0162 nM; in assay [6], 0.0862 nM; in assay [3], 2.6 nM; in assay [4], 0.0215 nM; in assay [7] it was 0.107 nM. The “EC50 of blocking PDL-1/PD1” value in assay [2] was 1.82 nM.

B3: anti-PDL-1/CTLA-4 recombinant bispecific antibody AB04 (bispecific antibody, human IgG1, kappa)
heavy: not shown
light: EIVLTQSPDTLSVTPKEKVTLTCRASQSIGTNIHWFQQKPGQSPKLLIKYASESISGVPSRFSGSGSGTDFTLTINSVEAEDAATYYCQQSNSWPYTFGQGTKLEIKRTVAAPSVFIFPPSDEQLKSGTASVVCLLNNFYPREAKVQWKVDNALQSGNSQESVTEQDSKDSTYSLSSTLTLSKADYEKHKVYACEVTHQGLSSPVTKSFNRGEC
notes: The scFv is at the C-terminus of the heavy chain; also called AB4
Turning to B3, in assay [1], the binding result is given as “binds”. Besides, the EC50 in assay [5] turned out to be 0.013 nM; in assay [6], 0.531 nM; in assay [3], 1.84 nM; in assay [4], 0.0324 nM; in assay [7], 0.6 nM. The “EC50 of blocking PDL-1/PD1” value in assay [2] stood at 1.53 nM. For the same molecule, the “EC50 as a multiple of that of AB02” value in assay [8] was 10 to 12 times.

What is called EC50 is the concentration at which the effect is half-maximal.
